Test results from the RNAGym collection of RNA variant scans (doi:10.1073/pnas.2313332121).

B1: TPR t1 (parent)
chain: GACCAAUCUGCCCUCAGAGCUCGAGAACAUCUUCGGAUGCAGAGGAGGCAGGCUUCGGUGGCGCGAUAGCGCCAACGUCCUCAACCUCCAAUGCAUCCCACCACAUGAUGAUGCCUGAAGAGCCUUGGUUUUUUG

Variants of: B1
Experiment: polymerase ribozyme fitness, log enrichment relative to wild type (log ratio); higher = more active; in vitro selection for triplet polymerase activity
Procedure, shortened: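 Mutant libraries of both subunits of a heterodimeric triplet polymerase ribozyme were PCR-built, transcribed, and selected once in triplicate, with frozen incubation at −7 °C and capture of gel-excised extended constructs on streptavidin beads before RT-PCR. Illumina sequencing of input and output libraries was filtered to genotypes with ≥10 input reads and ≥1 read per output. Fitness is the logarithm of genotype enrichment over wild-type enrichment, using inverse-variance-weighted replicate averages. The logarithm is base 2.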

Row | Variant | polymerase ribozyme fitness (log ratio)
1 | GACCAAUCUGCCCUCAGAGCUCGAGAACAUCUUCGGAUGCAGAGAAGGCAGGCUUCGGUGGCGCGAUAGCGCAAACGUCCUCAACCUCCAAUGCAUCCCACCACAUGAUGAUUCCUGAAGAGCCUUGGUUUUUUG [G45A C73A G113U] | -4.75
2 | GACCAAUCUGCCCUCAGAGCUCGAGAACAUCUUCGGAUGCAGAGAAGGCAGGGUUCGGUGGCGCGAUAGCGCCAACGUCCUCGACCUCCAAUGCAUCCCACCACAUGAUGAUGCCUAAAGAGCCUUGGUUUUUUG [G45A C53G A83G G117A] | -3.23
3 | GACCAAUCUGCCCUCAGAGCUCGAGAACAUCUUCGGAUGCAGAGAAGGCAGGCUUCGGUGGCGCGAUAGCGCCAACGUCCUCAACAUCCAAUGCAUCCCACCACAUGAUGAUGCCUGAAGAGCCUUGGUUUUUUG [G45A C86A] | -1.9
4 | GACCAAUCUGCCCUCAGAGCUCGAGAACAUCUUCGGAUGCAGAGAAGGCAGGCUUCGGUGGCGCGAUAGGGCCAACGUCCUCAACCUCCAAUGCAUCCCACCACAUGAUGAUGCCUGAAGAGCCUUGGUUUUUUG [G45A C70G] | -3.56
5 | GACCAAUCUGCCCUCAGAGCUCGAGAACAUCUUCGGAUGCAGAGAAGGCAGGCUUCGGUGGCGCGAUAGAGCCAACGUCCUCAACCUCCAAUGCAUCCCACCACAUGAUGAUGCCUGAAGAGCCUUGGUUUUUUG [G45A C70A] | -1.89
6 | GACCAAUCUGCCCUCAGAGCUCGAGAACAUCUUCGGAUGCAGAGAAGGCAGGCUUCGGUGGCGCGAUAGGGCCAACGUCCUCAACCUCCAAUGCAUCCCACCACAUGAUAAUGCCUGAAGAGCCUUGGUUUUUUG [G45A C70G G110A] | -6.64
7 | GACCAAUCUGCCCUCAGAGCUCGAGAACAUCUUCGGAUGCAGAGAAGGCAGGCUUCGGUGGCGCGAUAGCGCUAACGUCCUCAACCUCCAAUCCAUCCCACCACAUGAUGAUGCCUGAAGAGCCUUGGUUUUUUG [G45A C73U G93C] | -1.34
8 | GACCAAUCUGCCCUCAGAGCUCGAGAACAUCUUCGGAUGCAGAGAAGGCAGGCUUCGGUGGCGUGAUAGCGCCAACGUCCUCAACUUCCAAUGCAUCCCACCACAUGAUGAUGCAUGAAGAGGCUUGGUUUUUUG [G45A C64U C86U C115A C123G] | -1.22
9 | GACCAAUCUGCCCUCAGAGCUCGAGAACAUCUUCGGAUGCAGAGAAGGCAGGCUUCGGUGGUGCGAUAGCGCCAACGUCCUCAACCUCCAAUGCAGCCCACCACAUGAUGAUGCCUGAAGAGCCUUGGUUUUUUG [G45A C62U U96G] | -1.28
10 | GACCAAUCUGCCCUCAGAGCUCGAGAACAUCUUCGGAUGCAGAGAAGGCAGGCUUCGGUGGCGAGAUAGCGCCAACGUCCUCAACCUCCAAUGCAUCCCACCACAUGAUGAUGCCUGAAGAGCCUUGGUUUUUUG [G45A C64A] | -6.18
11 | GACCAAUCUGCCCUCAGAGCUCGAGAACAUCUUCGGAUGCAGAGAAGGCAGGCUUCGGUGGCGCGAUGGCGCCAACGUCCUCAACCUCCAAUGCAUCCCACCACAUGAUGAAGCCUGAAGAGCCUUGGUUUUUUG [G45A A68G U112A] | -4.04
12 | GACCAAUCUGCCCUCAGAGCUCGAGAACAUCUUCGGAUGCAGAGAAGGCAGGCUUCGGUGGUGCGAUAGCGCCAACGUCCUCAACCUCCAAUGCAUCCCACCACAUGAUGAGGCGUGAAGAGCCUUGGUUUUUUG [G45A C62U U112G C115G] | -2.08
13 | GACCAAUCUGCCCUCAGAGCUCGAGAACAUCUUCGGAUGCAGAGAAGGCAGGCUUCGGUGGCGCGAUAGCGCCAACGUCCUCAACCUCCAAUGCAUCCCACCACAUGAUGAUGCCUGAAGGGCCUUGGUUUUUUG [G45A A121G] | 1.78
14 | GACCAAUCUGCCCUCAGAGCUCGAGAACAUCUUCGGAUGCAGAGAAGGGAGGCUUCGGUGGCGCGAUAGCGCCAACGUCCUCAACCUCCAAUGCAUCCCACCACACGAUGAAGCCUGAAGAGCCUUGGUUUUUUG [G45A C49G U106C U112A] | -0.738
15 | GACCAAUCUGCCCUCAGAGCUCGAGAACAUCUUCGGAUGCAGAGAAGGCAGGCUUCGGUGGCGUGAUAGCGCCAACGUCCUCGACCUCCAAUGCAGCCCACCACAUGAUGAUGCCUGAAGAACCUUGGUUUUUUG [G45A C64U A83G U96G G122A] | -2.56
16 | GACCAAUCUGCCCUCAGAGCUCGAGAACAUCUUCGGAUGCAGAGAAGGCAGGCUUCGGUGGCGCGAUAGCGCCAACGUCCUCAACCUCCAAUGCAUCCCUCCACAUGAUGAUGCCUGAAGAGCCUUGGUUUUUUG [G45A A100U] | -2.26
17 | GACCAAUCUGCCCUCAGAGCUCGAGAACAUCUUCGGAUGCAGAGAAGGCAGGCUUCGGUGGCGCGAUAGCGCUAACGUCCUCAACCUCCAAUGCAUCCCACCACAUGAUGAUACUUGAAGAGCCUUGGUUUUUUG [G45A C73U G113A C115U] | -4.38
18 | GACCAAUCUGCCCUCAGAGCUCGAGAACAUCUUCGGAUGCAGAGAAGGCAGGCUUCGGUGGCGCGAUAGCGCCAACGUCCUCAAUCUCCAAUGCAUCCCACCACAUGAUGAUGCCUGAAGAGCCUUGGUUUUUUG [G45A C85U] | -1.45
19 | GACCAAUCUGCCCUCAGAGCUCGAGAACAUCUUCGGAUGCAGAGAAGGCAGGCUUCGGUGGCGCGAUAGAGCCAACGUCCUCAAACUCCAAUGCAUCCCACCACAUGAUGAUGCCUGAAGAGCCUUGGUUUUCUG [G45A C70A C85A U133C] | -4.78
20 | GACCAAUCUGCCCUCAGAGCUCGAGAACAUCUUCGGAUGCAGAGAAGGCAGGCUUUGGUGGCGCGAUAGCGCCAACGUCCUCAACCUCCUAUGCAUCCCACCACAUGAUGAUGCCUGAAGAGCCUUGGUUUUUUG [G45A C56U A90U] | -1.57
21 | GACCAAUCUGCCCUCAGAGCUCGAGAACAUCUUCGGAUGCAGAGAAGGCAGGCUUCGGUGGCGCGAUAGCGCCAACGUCCUCAACCUCCAAUGCAUCUCACCACAAGAUGAUGCCUGAAGAGCCUUGGUUUUUUG [G45A C98U U106A] | -1.28

Row | Variant | polymerase ribozyme fitness (log ratio)
22 | GACCAAUCUGCCCUCAGAGCUCGAGAACAUCUUCGGAUGCAGAGAAGGCAGGCUUCGGUGGCGCGAUAGCGCCAACGUCCUCAACCUCGAAUGCAUCCCACCACAUGAUGAUGCCGGAAGAGCCUUGGUUUUUUG [G45A C89G U116G] | -4.12
23 | GACCAAUCUGCCCUCAGAGCUCGAGAACAUCUUCGGAUGCAGAGAAGGAAGGCUUCGGUGGCGCGAUAGCGCCAACGUCCUCAACCUCCAAUGCAUCCCACCACAUGAUGAUGCCUAAAGAGCCUUGGUUUUUUG [G45A C49A G117A] | -2.04
24 | GACCAAUCUGCCCUCAGAGCUCGAGAACAUCUUCGGAUGCAGAGAAGGCAGGCUUCGGUGGCGCGAUAGCGCCAACGUCCUCAACCUCCAAUGCAUUCCACCACAUGAUGAUGCCUGAAGAGCCUUGGUUUUUUG [G45A C97U] | -2.83
25 | GACCAAUCUGCCCUCAGAGCUCGAGAACAUCUUCGGAUGCAGAGAAGGCAGGCUUUGGUGGCGCGAUAUCGCCAACGUCCUCAACCUCCAAUUCAUCCCACCACAUGAUGAUGCCUGAAGAGCCUUGGUUUUUUG [G45A C56U G69U G93U] | -4.17
26 | GACCAAUCUGCCCUCAGAGCUCGAGAACAUCUUCGGAUGCAGAGAAGGCAGGCUUCGGUGGCGCGAUAGCGCCAACGUCCUCAACCUACAAUGCAUCCCACCACAUGAUGAGGCCUGAAGAGCCUUGGUUUUUUG [G45A C88A U112G] | -0.116
27 | GACCAAUCUGCCCUCAGAGCUCGAGAACAUCUUCGGAUGCAGAGAAGGCAGGCUUCGGUGGCGCGAUAGCGACAACGUCCUCAACCUCCAAGGCAUCCCACCACAUGAUGAUGCCUGAAGAGCCUUGGUUUUUUG [G45A C72A U92G] | -2.71
28 | GACCAAUCUGCCCUCAGAGCUCGAGAACAUCUUCGGAUGCAGAGAAGGCAGGGUUCGGGGGCGCGAUAGCGCCAACGUCCUCAACCUCCAAUGCAUCCCACCAAAUGAUGAAGCCUGAAGAGCCUUGGUUUUUUG [G45A C53G U59G C104A U112A] | -0.739
29 | GACCAAUCUGCCCUCAGAGCUCGAGAACAUCUUCGGAUGCAGAGAAGGCAGGCUUCGGUGGCGCGAUAGCGCCAACGUCCUCAACCUCCAAUGUAUCCCACCACAUGAUGAUGCCUGAAGAGCCUUGGUUUUUUG [G45A C94U] | -0.815
30 | GACCAAUCUGCCCUCAGAGCUCGAGAACAUCUUCGGAUGCAGAGAAGGCAGGCUUCGGUGGCGCGAUAGCGCCGACGUCCUCAACCUCCAAUGCUUCCCACCACAUGAUGAUGCCUGAAGAGCCUUGGUUUUUUG [G45A A74G A95U] | -1.3
31 | GACCAAUCUGCCCUCAGAGCUCGAGAACAUCUUCGGAUGCAGAGAAGGCAGGCUUCGGUGGCGCGAUAGCGCCAACGUCCUCAACCUUCAAUGCAUCCCACCACAUGAUGAUGCCUGAAGAGCCUUGGUUUUUUG [G45A C88U] | -0.289
32 | GACCAAUCUGCCCUCAGAGCUCGAGAACAUCUUCGGAUGCAGAGAAGGCAGGCUUCGGUGGCGCGAUAGCGCCAACGUUCUCAACCUCCAAUGCAUCCCACCACAUGAUGAUGCCUGAAGAGCCUUGGUUUUUUG [G45A C79U] | -1.01
33 | GACCAAUCUGCCCUCAGAGCUCGAGAACAUCUUCGGAUGCAGAGAAGGCAGGCUUCGGUGGCGCGAUAGCGCCAACGUGCUCAACCUCCAAUGCAUCCCACCACAUGAUGAUGCCUGAAGAGCCUUGGUUUUUUG [G45A C79G] | -1.88
34 | GACCAAUCUGCCCUCAGAGCUCGAGAACAUCUUCGGAUGCAGAGAAGGCAGGCUUCGGUGGCGCGAUAGCGCCAACGUCCUCAAUCUCCAACGCAUCCCACCACAUGAUGAUGCCUGAAGAGCCUUGAUUUUUUG [G45A C85U U92C G128A] | -5.92
35 | GACCAAUCUGCCCUCAGAGCUCGAGAACAUCUUCGGAUGCAGAGAAGGCAGGAUUCGGUGGCGCGAUAGCGCCAACGCCCUCAACCUCCAAUGCAUCCCACCACAUGAGUAUGCCUGAAGUGCCUUGGUUUUUUG [G45A C53A U78C U109G G110U A121U] | -3.1
36 | GACCAAUCUGCCCUCAGAGCUCGAGAACAUCUUCGGAUGCAGAGAAGGCAGGCUUCGGUGGCGCGAUAGCGCUAACGUCCUCAACCUCCAAUGCAUCCCACCACAUGAUGAUGCCUGAAGAGCCUUGGUUUUUUG [G45A C73U] | -1.34
37 | GACCAAUCUGCCCUCAGAGCUCGAGAACAUCUUCGGAUGCAGAGAAGGCAGGCUUCGGUGGCGCGAUUGCGCCAACGUCCUCAACCUCCAAUGCAUCCCACCAUAUGACGAUGCCUGAAGAGCCUUGGUUUUUUG [G45A A68U C104U U109C] | -6.38
38 | GACCAAUCUGCCCUCAGAGCUCGAGAACAUCUUCGGAUGCAGAGAAGGCAGGCUUCGGUGGCGCGAUAGCGCGAACGUCCUCAAACUCCAAUGCAUCCCACCACAUGAUGAUGCCUGAAGAGCCUUGGUUUUUUG [G45A C73G C85A] | -2.3
39 | GACCAAUCUGCCCUCAGAGCUCGAGAACAUCUUCGGAUGCAGAGAAGGCAGGCUUUGGUGGCGCGAUAGCGCCAACGUCCUCAACCUCCAAUGCAUCCCACCACAUGAUGAUGCCUGAAGAGCCUUGGUUUUUUG [G45A C56U] | -0.103
40 | GACCAAUCUGCCCUCAGAGCUCGAGAACAUCUUCGGAUGCAGAGAAGGCAGGCUUCGGUGGCGCGAUAGCGUCAACGUCCUCAACCUCCAAUGCAUCCCACCACAUGAUGAUGCCUGAAGAGCCUUGGUUUUUUG [G45A C72U] | -0.796
41 | GACCAAUCUGCCCUCAGAGCUCGAGAACAUCUUCGGAUGCAGAGAAGGCAGGCUUCGGUGGCGCGAUAGCGCCAACGUCCUCCUCCUCCAAUGCAUCCCGCCACAUGAUGAUGCCUGAAGAUGCUUGGUUUUUUG [G45A A83C A84U A100G G122U C123G] | -5.96
42 | GACCAAUCUGCCCUCAGAGCUCGAGAACAUCUUCGGAUGCAGAGAAGGCAGGCUUCGGUGGCGCGAUAGCGCCAACGUCCUCAACCUCCAAUGCAUCCCACAACAUGAUGAUGCCUGAAGAACCUUGGUUUUUUG [G45A C102A G122A] | -3.14
